According to patent US12630600B2 (MEDIMMUNE LIMITED, priority 2022, dated 2026):
Starred links: 1 amine or outer side, 2 acyl side, 3 side chain; linkers in the order of their positions; H or OH if unused. Non-standard residues stand in square brackets, D forms with d. Groups on a side chain read outwards from the residue. No end group written: not given here. *: point of attachment. C20 diacid = O=C(O)CCCCCCCCCCCCCCCCCCC(=O)*; C18 diacid = O=C(O)CCCCCCCCCCCCCCCCC(=O)*; γGlu = O=C(O)[C@H](CCC(=O)[*:2])N[*:1]; αMeF = C[C@](N)(Cc1ccccc1)C(=O)O; AEEA = NCCOCCOCC(=O)O; Aib = CC(C)(N)C(=O)O

B1: Peptide 479 (peptide)
peptide: H[Aib]QGTFTSDVSK[αMeF]LDTK([AEEA-AEEA-γGlu-C20 diacid])RAQDFVRWLLE[Aib]K-NH2
modifications: N-terminus assumed
SMILES: CC(C)C[C@H](NC(=O)[C@H](Cc1c[nH]c2ccccc12)NC(=O)[C@H](CCCNC(=N)N)NC(=O)[C@@H](NC(=O)[C@H](Cc1ccccc1)NC(=O)[C@H](CC(=O)O)NC(=O)[C@H](CCC(N)=O)NC(=O)[C@H](C)NC(=O)[C@H](CCCNC(=N)N)NC(=O)[C@H](CCCCNC(=O)COCCOCCNC(=O)COCCOCCNC(=O)CC[C@H](NC(=O)CCCCCCCCCCCCCCCCCCC(=O)O)C(=O)O)NC(=O)[C@@H](NC(=O)[C@H](CC(=O)O)NC(=O)[C@H](CC(C)C)NC(=O)[C@](C)(Cc1ccccc1)NC(=O)[C@H](CCCCN)NC(=O)[C@H](CO)NC(=O)[C@@H](NC(=O)[C@H](CC(=O)O)NC(=O)[C@H](CO)NC(=O)[C@@H](NC(=O)[C@H](Cc1ccccc1)NC(=O)[C@@H](NC(=O)CNC(=O)[C@H](CCC(N)=O)NC(=O)C(C)(C)NC(=O)[C@@H](N)Cc1c[nH]cn1)[C@@H](C)O)[C@@H](C)O)C(C)C)[C@@H](C)O)C(C)C)C(=O)N[C@@H](CC(C)C)C(=O)N[C@@H](CCC(=O)O)C(=O)NC(C)(C)C(=O)N[C@@H](CCCCN)C(N)=O
B2: Peptide 477 (peptide)
peptide: H[Aib]QGTFTSDVSK[αMeF]LDTK([AEEA-AEEA-γGlu-C20 diacid])RAQDFVRWLLA[Aib]G-NH2
modifications: N-terminus assumed
SMILES: CC(C)C[C@H](NC(=O)[C@H](CC(C)C)NC(=O)[C@H](Cc1c[nH]c2ccccc12)NC(=O)[C@H](CCCNC(=N)N)NC(=O)[C@@H](NC(=O)[C@H](Cc1ccccc1)NC(=O)[C@H](CC(=O)O)NC(=O)[C@H](CCC(N)=O)NC(=O)[C@H](C)NC(=O)[C@H](CCCNC(=N)N)NC(=O)[C@H](CCCCNC(=O)COCCOCCNC(=O)COCCOCCNC(=O)CC[C@H](NC(=O)CCCCCCCCCCCCCCCCCCC(=O)O)C(=O)O)NC(=O)[C@@H](NC(=O)[C@H](CC(=O)O)NC(=O)[C@H](CC(C)C)NC(=O)[C@](C)(Cc1ccccc1)NC(=O)[C@H](CCCCN)NC(=O)[C@H](CO)NC(=O)[C@@H](NC(=O)[C@H](CC(=O)O)NC(=O)[C@H](CO)NC(=O)[C@@H](NC(=O)[C@H](Cc1ccccc1)NC(=O)[C@@H](NC(=O)CNC(=O)[C@H](CCC(N)=O)NC(=O)C(C)(C)NC(=O)[C@@H](N)Cc1c[nH]cn1)[C@@H](C)O)[C@@H](C)O)C(C)C)[C@@H](C)O)C(C)C)C(=O)N[C@@H](C)C(=O)NC(C)(C)C(=O)NCC(N)=O
B3: Peptide 476 (peptide)
peptide: H[Aib]QGTFTSDVSK[αMeF]LDTK([AEEA-AEEA-γGlu-C18 diacid])RAQDFVRWLLA[Aib]G-NH2
modifications: N-terminus assumed
SMILES: CC(C)C[C@H](NC(=O)[C@H](CC(C)C)NC(=O)[C@H](Cc1c[nH]c2ccccc12)NC(=O)[C@H](CCCNC(=N)N)NC(=O)[C@@H](NC(=O)[C@H](Cc1ccccc1)NC(=O)[C@H](CC(=O)O)NC(=O)[C@H](CCC(N)=O)NC(=O)[C@H](C)NC(=O)[C@H](CCCNC(=N)N)NC(=O)[C@H](CCCCNC(=O)COCCOCCNC(=O)COCCOCCNC(=O)CC[C@H](NC(=O)CCCCCCCCCCCCCCCCC(=O)O)C(=O)O)NC(=O)[C@@H](NC(=O)[C@H](CC(=O)O)NC(=O)[C@H](CC(C)C)NC(=O)[C@](C)(Cc1ccccc1)NC(=O)[C@H](CCCCN)NC(=O)[C@H](CO)NC(=O)[C@@H](NC(=O)[C@H](CC(=O)O)NC(=O)[C@H](CO)NC(=O)[C@@H](NC(=O)[C@H](Cc1ccccc1)NC(=O)[C@@H](NC(=O)CNC(=O)[C@H](CCC(N)=O)NC(=O)C(C)(C)NC(=O)[C@@H](N)Cc1c[nH]cn1)[C@@H](C)O)[C@@H](C)O)C(C)C)[C@@H](C)O)C(C)C)C(=O)N[C@@H](C)C(=O)NC(C)(C)C(=O)NCC(N)=O
B4: Peptide 478 (peptide)
peptide: H[Aib]QGTFTSDVSK[αMeF]LDTK([AEEA-AEEA-γGlu-C18 diacid])RAQDFVRWLLE[Aib]K-NH2
modifications: N-terminus assumed
SMILES: CC(C)C[C@H](NC(=O)[C@H](Cc1c[nH]c2ccccc12)NC(=O)[C@H](CCCNC(=N)N)NC(=O)[C@@H](NC(=O)[C@H](Cc1ccccc1)NC(=O)[C@H](CC(=O)O)NC(=O)[C@H](CCC(N)=O)NC(=O)[C@H](C)NC(=O)[C@H](CCCNC(=N)N)NC(=O)[C@H](CCCCNC(=O)COCCOCCNC(=O)COCCOCCNC(=O)CC[C@H](NC(=O)CCCCCCCCCCCCCCCCC(=O)O)C(=O)O)NC(=O)[C@@H](NC(=O)[C@H](CC(=O)O)NC(=O)[C@H](CC(C)C)NC(=O)[C@](C)(Cc1ccccc1)NC(=O)[C@H](CCCCN)NC(=O)[C@H](CO)NC(=O)[C@@H](NC(=O)[C@H](CC(=O)O)NC(=O)[C@H](CO)NC(=O)[C@@H](NC(=O)[C@H](Cc1ccccc1)NC(=O)[C@@H](NC(=O)CNC(=O)[C@H](CCC(N)=O)NC(=O)C(C)(C)NC(=O)[C@@H](N)Cc1c[nH]cn1)[C@@H](C)O)[C@@H](C)O)C(C)C)[C@@H](C)O)C(C)C)C(=O)N[C@@H](CC(C)C)C(=O)N[C@@H](CCC(=O)O)C(=O)NC(C)(C)C(=O)N[C@@H](CCCCN)C(N)=O
B5: Peptide 475 (peptide)
peptide: H[Aib]QGTFTSDVSK[αMeF]LDTK([AEEA-AEEA-γGlu-C20 diacid])RARDFVQWLLA[Aib]G-NH2
modifications: N-terminus assumed
SMILES: CC(C)C[C@H](NC(=O)[C@H](CC(C)C)NC(=O)[C@H](Cc1c[nH]c2ccccc12)NC(=O)[C@H](CCC(N)=O)NC(=O)[C@@H](NC(=O)[C@H](Cc1ccccc1)NC(=O)[C@H](CC(=O)O)NC(=O)[C@H](CCCNC(=N)N)NC(=O)[C@H](C)NC(=O)[C@H](CCCNC(=N)N)NC(=O)[C@H](CCCCNC(=O)COCCOCCNC(=O)COCCOCCNC(=O)CC[C@H](NC(=O)CCCCCCCCCCCCCCCCCCC(=O)O)C(=O)O)NC(=O)[C@@H](NC(=O)[C@H](CC(=O)O)NC(=O)[C@H](CC(C)C)NC(=O)[C@](C)(Cc1ccccc1)NC(=O)[C@H](CCCCN)NC(=O)[C@H](CO)NC(=O)[C@@H](NC(=O)[C@H](CC(=O)O)NC(=O)[C@H](CO)NC(=O)[C@@H](NC(=O)[C@H](Cc1ccccc1)NC(=O)[C@@H](NC(=O)CNC(=O)[C@H](CCC(N)=O)NC(=O)C(C)(C)NC(=O)[C@@H](N)Cc1c[nH]cn1)[C@@H](C)O)[C@@H](C)O)C(C)C)[C@@H](C)O)C(C)C)C(=O)N[C@@H](C)C(=O)NC(C)(C)C(=O)NCC(N)=O

biological target: human glucagon receptor (human, UniProt P47871); experiment: cell-based or functional assay

Compared with B1, B2 is 1.8-fold lower in “cAMP production EC50” value: 0.207 nM for the first, 0.117 nM for the second.

Going from B3 to B4, the “cAMP production EC50” value rises from 0.104 nM to 0.19 nM (1.8-fold).

B5 was tested, and the “cAMP production EC50” value was 0.0615 nM.

biological target: human GLP-1 receptor (human, UniProt P43220); experiment: cell-based or functional assay

Compared with B1, B2 is 1.6-fold higher in “cAMP production EC50” value: 0.0342 nM for the first, 0.0541 nM for the second.

First: B3
Second: B4
The “cAMP production EC50” value of the first is 6.2-fold higher: 0.0573 nM for the first, 0.00918 nM for the second.

B5 was tested, and the “cAMP production EC50” value was 0.00675 nM.
